Assay results taken from the Human Domainome abundance scans (Beltran et al. 2025).
± gives the uncertainty stated by the source.

B1: Gamma-crystallin C, residues 4 to 79; numbered along this chain, P07315 (parent)
chain: ITFYEDRAFQGRSYETTTDCPNLQPYFSRCNSIRVESGCWMLYERPNYQGQQYLLRRGEYPDYQQWMGLSDSIRSC

Variants of: B1
Test: abundance fitness (aPCA) (normalised: wild type 0, dead -1); higher = more abundant; growth selection in yeast, the domain comes from the species named
Details: Homo sapiens

Abundance fitness: each site, then its substitutions
N47: H -0.125 ± 0.15, F -0.101 ± 0.33, T -0.1 ± 0.11, V -0.181 ± 0.13, C -0.159 ± 0.15
M41: W 0.039 ± 0.1, H -0.186 ± 0.18, S 0.068 ± 0.1, C -0.041 ± 0.11, P -0.981 ± 0.32, D -0.133 ± 0.22, Y 0.032 ± 0.1, K -0.056 ± 0.14, R -0.018 ± 0.069, Q 0.046 ± 0.11, F 0.104 ± 0.2, E 0.059 ± 0.12, A -0.07 ± 0.12, V -0.115 ± 0.087, L -0.056 ± 0.08, N -0.132 ± 0.42
W40: Y -0.16 ± 0.28, S -0.451 ± 0.13, V 0.088 ± 0.11, L -0.243 ± 0.052, P -0.939 ± 0.27, T -0.43 ± 0.17, R -0.969 ± 0.13, M -0.496 ± 0.15
Q49: G -0.045 ± 0.052, N -0.053 ± 0.16, V -0.098 ± 0.097, T 0.026 ± 0.12, P -0.805 ± 0.34, Y -0.013 ± 0.3, R -0.07 ± 0.059, W -0.275 ± 0.09, K -0.056 ± 0.18, E 0.098 ± 0.15, L 0.022 ± 0.11, A -0.02 ± 0.085, C 0.33 ± 0.29, F -0.298 ± 0.23, D -0.041 ± 0.41, M -0.115 ± 0.11
Y48: A -0.329 ± 0.11, M 0.148 ± 0.068, T -0.626 ± 0.41, V -0.955 ± 0.27, S -0.324 ± 0.12, R -0.508 ± 0.049, H 0.042 ± 0.21, L -0.182 ± 0.072, E -0.373 ± 0.15, C 0.083 ± 0.2, F -0.584 ± 0.31, N -0.121 ± 0.28, K -0.813 ± 0.34, G -0.109 ± 0.064
G50: H -0.857 ± 0.43, N -0.359 ± 0.13, M -1.02 ± 0.38, A -0.276 ± 0.17, E -0.372 ± 0.074, V -0.788 ± 0.23, D -0.456 ± 0.2, L -0.894 ± 0.27, S -0.244 ± 0.1, K -0.574 ± 0.25, C -0.336 ± 0.35, I -0.806 ± 0.37, R -0.555 ± 0.08
L54: K 0.057 ± 0.19, D -0.149 ± 0.13, A -0.016 ± 0.08, W -0.073 ± 0.13, Y -0.393 ± 0.25, P -0.092 ± 0.13, R -0.104 ± 0.081, C 0.085 ± 0.14, M -0.044 ± 0.089, Q 0.096 ± 0.26, H -0.068 ± 0.22, V 0.02 ± 0.084, T -0.234 ± 0.1, E -0.004 ± 0.15, S -0.003 ± 0.088, N -0.025 ± 0.35, I -0.135 ± 0.15
Q51: P -0.219 ± 0.087, S -0.015 ± 0.22, A -0.012 ± 0.098, M -0.088 ± 0.22, C -0.19 ± 0.33, L 0.014 ± 0.16, G -0.047 ± 0.09, T -0.159 ± 0.12, D -0.056 ± 0.13, W -0.149 ± 0.13, E -0.023 ± 0.099, V -0.016 ± 0.1, I 0.078 ± 0.34
D62: R -0.034 ± 0.057, G -0.013 ± 0.04, T -0.055 ± 0.097, V -0.015 ± 0.06, P -0.401 ± 0.16, Q -0.062 ± 0.082, L -0.086 ± 0.085, M -0.03 ± 0.084, A -0.006 ± 0.053, W 0.059 ± 0.087, F 0.041 ± 0.15, Y -0.037 ± 0.12, H -0.106 ± 0.096, I -0.26 ± 0.23, S -0.071 ± 0.085, C -0.177 ± 0.098, N -0.043 ± 0.1
R56: W -0.029 ± 0.18, C 0.086 ± 0.16, N 0.034 ± 0.33, M 0.118 ± 0.095, P -0.115 ± 0.13, K -0.018 ± 0.29, S -0.611 ± 0.14, A -0.019 ± 0.088, D -0.107 ± 0.15, F 0.195 ± 0.22, Y 0.255 ± 0.24, V 0.039 ± 0.088, Q -0.003 ± 0.2, T 0.071 ± 0.085, L -0.062 ± 0.074, E 0.005 ± 0.086
R57: I -0.053 ± 0.16, P -0.009 ± 0.12, C 0.142 ± 0.26, F 0.059 ± 0.2, Q 0.044 ± 0.14, H 0.001 ± 0.41, V 0.024 ± 0.078, Y -0.269 ± 0.18, M 0.07 ± 0.29, E 0.064 ± 0.1, A 0.046 ± 0.12, S -0.039 ± 0.11, G 0.051 ± 0.066, K 0.049 ± 0.15, L -0.059 ± 0.081, T 0.244 ± 0.35, W -0.143 ± 0.11
Y43: V -1.05 ± 0.19, H 0.055 ± 0.11, S 0.094 ± 0.083, R -0.926 ± 0.14, P -1.03 ± 0.45, D -0.817 ± 0.29, M -0.296 ± 0.18, W -0.139 ± 0.12, C 0.111 ± 0.12, L -0.889 ± 0.13, F -0.15 ± 0.15, G -0.775 ± 0.083, T -0.249 ± 0.21, Q -0.86 ± 0.24, A -0.156 ± 0.079
